According to patent US20200031947A1 (RINAT NEUROSCIENCE, published 2020):

Assays:
[1] = molecular target: T1, human GITR (hGITR), soluble analyte (human, UniProt Q9Y5U5 26-162); experiment: SPR (Biacore T200), 37 C; antibody captured on anti-human Fc chip, GITR as analyte; 1:1 Langmuir fit
T1 sequence: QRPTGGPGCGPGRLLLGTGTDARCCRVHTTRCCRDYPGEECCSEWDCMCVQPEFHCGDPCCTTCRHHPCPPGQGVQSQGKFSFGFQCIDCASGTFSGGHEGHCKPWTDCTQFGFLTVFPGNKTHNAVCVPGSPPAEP
Procedure: (§1) The sensor chip preparation was performed at 25° C. with a running buffer of 10 mM HEPES, 150 mM NaCl, 0.05% (v/v) Tween-20, pH 7.4. An anti-human Fc sensor chip was made by activating all flow cells of a Biacore CM4 sensor chip with a 1:1 (v/v) mixture of 400 mM EDC and 100 mM NHS for 7 minutes, at a flow rate of 10 μL/min. An anti-human Fc reagent (Goat Anti-Human IgG Fc, SouthernBiotech Catalog #2081-01) was diluted to […] in 10 mM Sodium Acetate pH 4.5 and injected on all flow cells for 7 minutes at 20 μL/min. All flow cells were blocked with 100 mM ethylenediamine in 150 mM Borate buffer pH 8.5 for 7 minutes at 10 μL/min.
(§2) Antibodies were captured from undiluted supernatants onto downstream flow cells (flow cells 2, 3 and 4) at a flow rate of 10 μL/min for 2 minutes. Different antibodies were captured on each flow cell. Flow cell 1 was used as a reference surface. Following capture of antibodies, analyte (buffer, hGITR, or cyGITR) was injected at 30 μL/min on all flow cells for two minutes. After the analyte injection, dissociation was monitored for 10 minutes followed by regeneration of all flow cells with three 1-minute injections of 75 mM Phosphoric Acid. For each captured antibody, the following analyte injections were performed: buffer, 20 nM hGITR, 200 nM hGITR, 20 nM cyGITR and 200 nM cyGITR. Buffer cycles were collected for each captured antibody for double-referencing purposes (double-referencing as described in Myszka, J. Mol. Recognit. 12:279-284 (1999). The double-referenced sensorgrams were fit globally to a simple 1:1 Langmuir with mass transport binding model.

[2] = molecular target: T2, cynomolgus GITR (cyGITR), soluble analyte (cynomolgus); experiment: as above
T2 construct: Soluble analyte in SPR; construct not described; also called cGITR
Procedure: as §1, §2

human GITR on cells = molecular target: T3, human GITR on cells (human, UniProt Q9Y5U5 26-162); experiment: flow cytometry on human T cells activated 48 h with CD3/28 beads; unlabeled antibody detected with APC goat anti-mouse Fc gamma F(ab')2
T3 construct: Endogenous on primary human T cells and Tregs, or transfected into Jurkat and 3A9 cells
T3 sequence: T1 sequence
Text: Primary human lymphocytes were isolated from concentrated whole blood provided by the Stanford Blood Bank by first diluting blood 1:4 in Phosphate Buffered Saline (PBS, without Ca2+ and Mg2+). Peripheral Blood Mononuclear Cells (PBMC) were isolated using a Ficoll gradient underlay (Ficoll-Paque PLUS, GE Healthcare Life Sciences, Pittsburgh, Pa.). The harvested buffy layer was washed twice with PBS and counted. Cells were resuspended at 50*10e6c/mL in PBS+2% Fetal Bovine Serum (FBS) and processed with CD3 negative enrichment kit (Stem Cell Tech Vancouver, BC) according to manufacturer's instructions. After enrichment, cells were counted and frozen in aliquots of 10-20*10e6 in 90% FBS 10% DMSO freeze media for future use. For activation, a vial of cells from a donor T cell was thawed and rested overnight in R10c (RPMI 1640+10% FBS+1×NEAA+1×Sodium Pyruvate+1×Pen-Strep) at 1*10e6 cells/mL in a T75 flask. Cells were counted and stimulated for 48 hours with Dynabeads Human CD3/28 T cells activating beads at a 1:1 bead to cell ratio (Thermo Fisher). After 48 hours the cells were removed from media and washed with 1×PBS. Cells were titrated into a 96 well plate where they were stained with unlabeled mouse anti-human GITR antibodies (100-0.001 ug/mL) in PBS and incubated for 30 minutes at 37° c. […]

B1: m10H2 (antibody, V domains shown)
VH: QVQLQQSGAELMKPGASVKISCTATGYTISRYWIEWVKQRPGHGLEWIGEILPGSGVTNYNEKFKGKATFTADTSSNTAYMQLSSLTSEDSAVYSCARKGTYYAMDYWGQGTSVTVSS
VL: DILLTQSPAILSVSPGERVSFSCRASQSIGTSIHWYQQRTNGSPRLLIKYASESVSGIPSRFSGSGSGTDFTLFINSVESEDIADYYCQQTYSWPATFGAGTKLELK
notes: In ADCC it is called hIgG1; also called anti-human GITR antibody m10H2; A647 labeled m10H2
Kd [1]: 2.2 nM | koff [1]: 0.00077 s⁻¹ | kon [1]: 350000 M⁻¹ s⁻¹ | t1/2 [1]: 15 min | Kd [2]: > 100 nM | koff [2]: 0.0073 s⁻¹ | t1/2 [2]: 1.6 min | EC50 (read off the curve) (human GITR on cells): ~0.07 µg/mL
